This passage reports Km results from doi:10.1101/2025.11.11.687647v1.

Substrate in this series: CC(=O)C(=O)O
The experiment in a line: purified protein. As to conditions: pH 8.0; 25.0 °C.

B1: MtPC (Mycobacterium tuberculosis pyruvate carboxylase) (Mycobacterium tuberculosis H37Rv) (protein)
chain: MFSKVLVANRGEIAIRAFRAAYELGVGTVAVYPYEDRNSQHRLKADESYQIGDIGHPVHAYLSVDEIVATARRAGADAIYPGYGFLSENPDLAAACAAAGISFVGPSAEVLELAGNKSRAIAAAREAGLPVLMSSAPSASVDELLSVAAGMPFPLFVKAVAGGGGRGMRRVGDIAALPEAIEAASREAESAFGDPTVYLEQAVINPRHIEVQILADNLGDVIHLYERDCSVQRRHQKVIELAPAPHLDAELRYKMCVDAVAFARHIGYSCAGTVEFLLDERGEYVFIEMNPRVQVEHTVTEEITDVDLVASQLRIAAGETLEQLGLRQEDIAPHGAALQCRITTEDPANGFRPDTGRISALRTAGGAGVRLDGSTNLGAEISPYFDSMLVKLTCRGRDLPTAVSRARRAIAEFRIRGVSTNIPFLQAVLDDPDFRAGRVTTSFIDERPQLLTARASADRGTKILNFLADVTVNNPYGSRPSTIYPDDKLPDLDLRAAPPAGSKQRLVKLGPEGFARWLRESAAVGVTDTTFRDAHQSLLATRVRTSGLSRVAPYLARTMPQLLSVECWGGATYDVALRFLKEDPWERLATLRAAMPNICLQMLLRGRNTVGYTPYPEIVTSAFVQEATATGIDIFRIFDALNNIESMRPAIDAVRETGSAIAEVAMCYTGDLTDPGEQLYTLDYYLKLAEQIVDAGAHVLAIKDMAGLLRPPAAQRLVSALRSRFDLPVHLHTHDTPGGQLASYVAAWHAGADAVDGAAAPLAGTTSQPALSSIVAAAAHTEYDTGLSLSAVCALEPYWEALRKVYAPFESGLPGPTGRVYHHEIPGGQLSNLRQQAIALGLGDRFEEIEEAYAGADRVLGRLVKVTPTSKVVGDLALALVGAGVSADEFASDPARFGIPESVLGFLRGELGDPPGGWPEPLRTAALAGRGAARPTAQLAADDEIALSSVGAKRQATLNRLLFPSPTKEFNEHREAYGDTSQLSANQFFYGLRQGEEHRVKLERGVELLIGLEAISEPDERGMRTVMCILNGQLRPVLVRDRSIASAVPAAEKADRGNPGHIAAPFAGVVTVGVCVGERVGAGQTIATIEAMKMEAPITAPVAGTVERVAVSDTAQVEGGDLLVVVS
Consider B1, for which the Km turned out to be 2310 µM.
